[ ]: non-standard residue; d: D form.

In one assay the target is PKC-βI (Homo sapiens, UniProt P05771). The experiment in a line: ELISA-based competitive binding assay with purified PKC isoform. Details: key to Affinity for PKC isoform βI: —: no detectable affinity; Low to very low affinity at 10X or 20X or both PRE concentrations in at least one cell line in the cell extract assay; Low affinity in purified isoform assay.; Moderate affinity at 10X or 20X or both PRE concentrations in at least one cell line in the cell extract assay.; High affinity at 10X or 20X or both PRE concentrations in at least one cell line in the cell extract assay; High affinity in purified isoform assay. The following applies: for calculated binding capacity (100-% n, DMSO apparent binding subtracted): purified PKC-βI; for Affinity for PKC isoform βI: Purified isoform. As for the experimental part:
(§1) Peptides PRE 1, 2, 3, 4, 5, 6, 7, 8, 9, 10, 11, 12 and 13 (see Table 3) were tested for their ability to interfere with binding of PKC isoform-specific antibodies to their target PKC isoforms using a competitive binding assay and purified PKC isoforms.
(§2) Procedure: Competitive binding was assessed using a 96 well plate ELISA-based assay as described below.
(§3) Greiner 96 well ELISA plates were coated with the appropriate PKC isoform diluted in PBSN (PBS with Calcium/Magnesium+0.05% Sodium azide w/w). 50 μL/well at 250 ng/mL was used. Control wells contained PBSN only. Plates were incubated overnight at 4° C.
(§4) The plates were washed 3 times with 200 μL of dH2O per well, then 100 μL of blocking solution was added per well and the plate incubated for 1 h at 37° C. The washing steps with dH2O were repeated and 50 μL of the appropriate PRE solution (PRE stock solution [20 mM in DMSO] diluted in PBSN) was added and the plate incubated for 1 h at room temperature.
(§5) After incubation, 5 μL of 1.1:400 anti-PKC (isoform specific antibody) was added per well (to provide a final concentration of 1:4000). For PKC-epsilon, 1.1:800 dilution was used and for PKC-zeta a 1.1:100 dilution was used due to high and low binding affinity, respectively. The plates were then incubated 1 h at room temperature, followed by washing with dH2O as described above.
(§6) 50 μL of 1:1000 dilution of Alkaline Phosphatase (AP) conjugated antibody (anti-rabbit for all except zeta, which was anti-goat) was then added and the plate incubated for 1 h at room temperature. Washing with dH2O was then repeated. Finally, 100 μL of pNPP solution in pNPP buffer (2 mM MgCl2, 100 mM Sodium bicarbonate in water, pH 9.8) was added to all wells and incubated for 8 minutes for α, βI, βII ε, and ζ, or for 15-20 mins for δ (until sufficient coloration is observed). The reaction was stopped by addition of Stop solution (2N NaOH) and the absorbance at 405 nm was read on a Galaxy Plate reader.
(§7) Controls were PKC without PRE; blank controls, and controls containing the final concentrations of DMSO used for solubilizing the PREs. The non-specific binding capacity related to DMSO was also measured.
(§8) The antibodies used were as follows: anti-PKC α (Cat. No. SC-208); anti-PKC βI (Cat. No. SC-209); anti-PKC βII (Cat. No. SC-210); anti-PKC δ (Cat. No. SC-213); anti-PKC ε (Cat. No. SC-214); anti-PKC ζ (Cat. No. SC-216-G) (all from Santa Cruz Biotechnology, Inc.). The AP-conjugated antibodies were obtained from Jackson Immuno Research Laboratories (West Grove, Pa.).
(§9) Calculations: The OD values measured at 405 nm represent the free PKC coated per well.
(§10) OD405 PKC alone−Blank OD405 of each sample=OD405 coated isoform
(§11) (OD405 of sample X/OD405 coated isoform)×100=% n that represents the percentage of X binding compared to control.
(§12) 100-% n measures the relative binding capacity of X towards the tested isoform.
(§13) The apparent binding capacity of the DMSO samples was then subtracted from X binding capacity.
(§14) All measurements were made in triplicate and the values in the table represent the averaged calculated binding capacity values after subtraction of the DMSO apparent binding capacity (averaged from 12 values, respectively 10.80, 11.20 and 16.40 corresponding to the concentrations of DMSO used to dilute the […] at 200, 100 and 50 μM respectively). The results allow for quantitative comparison of the binding capacity of each PRE towards an individual isoform within each table, but not among isoforms due to differences in sensitivity of the specific antibodies toward the secondary antibody. This applies particularly to PKC-delta. As noted above, the colour development duration was increased 2-3 times and, as a result, the OD405 measurements may be overestimated for this isoform.

The target in assay [1] is T1, PKC-α (Homo sapiens, UniProt P17252). Kind of assay: Competitive binding assay using cell extracts (Western blot). Details: endogenous PKC-α in (A) untreated human neuroblastoma (IMR-32) cells; endogenous in cells; host or cells: IMR-32 human neuroblastoma cells. Conditions: Cell extract; PRE 10X or 20X antibody concentration. (In general: Immunoblotting shows a protein as a band on a membrane.)

For the next assay, the target named is PKC-βII (Homo sapiens, UniProt P05771). The experiment in a line: ELISA-based competitive binding assay with purified PKC isoform. Details: key to Affinity for PKC isoform βII: —: no detectable affinity; Low to very low affinity at 10X or 20X or both PRE concentrations in at least one cell line in the cell extract assay; Low affinity in purified isoform assay.; Moderate affinity at 10X or 20X or both PRE concentrations in at least one cell line in the cell extract assay.; High affinity at 10X or 20X or both PRE concentrations in at least one cell line in the cell extract assay; High affinity in purified isoform assay. The following applies: for calculated binding capacity (100-% n, DMSO apparent binding subtracted): purified PKC-βII; for Affinity for PKC isoform βII: Purified isoform. How it is done: as §1, §2, §3, §4, §5, §6, §7, §8, §9, §10, §11, §12, §13, §14
Sequence of PKC-βII (P05771 1-673 isoform P05771-2): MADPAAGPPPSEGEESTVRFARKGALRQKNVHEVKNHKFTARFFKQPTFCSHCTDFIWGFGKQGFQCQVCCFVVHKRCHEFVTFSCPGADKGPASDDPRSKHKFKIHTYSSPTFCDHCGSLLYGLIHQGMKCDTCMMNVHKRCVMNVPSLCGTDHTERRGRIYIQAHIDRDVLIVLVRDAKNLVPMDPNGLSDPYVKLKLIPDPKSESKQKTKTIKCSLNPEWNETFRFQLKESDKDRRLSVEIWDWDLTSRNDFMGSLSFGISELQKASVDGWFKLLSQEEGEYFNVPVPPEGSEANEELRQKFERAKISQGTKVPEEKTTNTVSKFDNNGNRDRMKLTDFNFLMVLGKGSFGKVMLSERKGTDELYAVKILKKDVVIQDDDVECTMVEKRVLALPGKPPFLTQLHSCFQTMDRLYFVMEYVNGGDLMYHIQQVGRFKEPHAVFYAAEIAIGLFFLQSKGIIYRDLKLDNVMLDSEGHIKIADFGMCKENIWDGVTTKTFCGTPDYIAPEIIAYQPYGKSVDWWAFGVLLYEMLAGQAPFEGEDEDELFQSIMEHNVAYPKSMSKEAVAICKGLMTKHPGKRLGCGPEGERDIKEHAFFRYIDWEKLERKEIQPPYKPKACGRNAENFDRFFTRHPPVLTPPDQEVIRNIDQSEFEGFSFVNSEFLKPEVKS

Assay [2] addresses T1, PKC-α. The assay is described as above. Details: key to Affinity for PKC isoform α: —: no detectable affinity; Low to very low affinity at 10X or 20X or both PRE concentrations in at least one cell line in the cell extract assay; Low affinity in purified isoform assay.; Moderate affinity at 10X or 20X or both PRE concentrations in at least one cell line in the cell extract assay.; High affinity at 10X or 20X or both PRE concentrations in at least one cell line in the cell extract assay; High affinity in purified isoform assay. The following applies: for Affinity for PKC isoform α: Purified isoform. As for the experimental part: as §1, §2, §3, §4, §5, §6, §7, §8, §9, §10, §11, §12, §13, §14

Sequence of PKC-βI (P05771 whole entry, canonical isoform): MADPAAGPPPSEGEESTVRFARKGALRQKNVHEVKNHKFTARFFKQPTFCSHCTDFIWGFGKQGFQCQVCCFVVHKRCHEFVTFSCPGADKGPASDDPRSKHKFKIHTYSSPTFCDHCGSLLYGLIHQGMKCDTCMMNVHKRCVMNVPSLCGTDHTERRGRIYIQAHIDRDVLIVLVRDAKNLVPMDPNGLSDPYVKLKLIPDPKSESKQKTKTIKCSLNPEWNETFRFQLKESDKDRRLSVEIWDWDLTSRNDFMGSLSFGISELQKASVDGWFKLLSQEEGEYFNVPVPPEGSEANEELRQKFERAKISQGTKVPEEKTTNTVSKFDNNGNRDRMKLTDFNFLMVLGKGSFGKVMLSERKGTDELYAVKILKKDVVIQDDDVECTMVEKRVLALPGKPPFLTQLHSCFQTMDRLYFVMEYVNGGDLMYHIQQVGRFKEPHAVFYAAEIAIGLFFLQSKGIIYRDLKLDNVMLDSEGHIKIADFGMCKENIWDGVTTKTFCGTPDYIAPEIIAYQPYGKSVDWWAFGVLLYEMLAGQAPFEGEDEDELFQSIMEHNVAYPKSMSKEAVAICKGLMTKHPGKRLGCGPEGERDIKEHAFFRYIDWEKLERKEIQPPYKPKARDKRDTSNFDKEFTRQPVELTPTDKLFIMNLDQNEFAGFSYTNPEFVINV

Turning to “Ac-isigilqnadk-NH2 (Ac-[dI][dS][dI]G[dI][dL][dQ][dN][dA][dD][dK]-NH2; SMILES CC[C@@H](C)[C@@H](NC(C)=O)C(=O)N[C@H](CO)C(=O)N[C@@H](C(=O)NCC(=O)N[C@@H](C(=O)N[C@H](CC(C)C)C(=O)N[C@H](CCC(N)=O)C(=O)N[C@H](CC(N)=O)C(=O)N[C@H](C)C(=O)N[C@H](CC(=O)O)C(=O)N[C@H](CCCCN)C(N)=O)[C@H](C)CC)[C@H](C)CC) [PRE 9]”, the “calculated binding capacity (100-% n, DMSO apparent binding subtracted)” value in the assay with PKC-βI (PRE 50 μM) is reported as 11.53%; with PKC-βI (PRE 100 μM), 8.82%; with PKC-βI (PRE 200 μM), 5.72%; in the assay with PKC-βII (PRE 50 μM), 8.14%; in the assay with PKC-βII (PRE 100 μM) it was 0.3%; with PKC-α [2] (PRE 100 μM, purified PKC-α), 5.35%. The “Affinity for PKC isoform βI” value in the assay with PKC-βI is reported as “L”. The entries for the “Affinity for PKC isoform α” value in the assay with PKC-α [1] and with PKC-α [2] were “M/L” and “—”, respectively. For the same substance, the “Affinity for PKC isoform βII” value in the assay with PKC-βII is “H”.

Regarding Ac-RDAQNLI-NH2 [PRE 13], the “Affinity for PKC isoform βI” value in the assay with PKC-βI is reported as “—”. The “Affinity for PKC isoform α” value with PKC-α [1] is given as “M/H”; with PKC-α [2], “—”. Besides, the “Affinity for PKC isoform βII” value with PKC-βII is “—”.

As to ILEDKGGDAQNLIGISI [PRE 8], the “Affinity for PKC isoform βI” value with PKC-βI is recorded as “—”. Besides, the “Affinity for PKC isoform α” value with PKC-α [1] was “M/L”; with PKC-α [2], “—”. The “Affinity for PKC isoform βII” value with PKC-βII is “—”.

For the substance Ac-KDANQLIGISI-NH2 [PRE 6], the “Affinity for PKC isoform βI” value in the assay with PKC-βI is “L”. Also, the entries for the “Affinity for PKC isoform α” value in the assay with PKC-α [1] and with PKC-α [2] were “H/L” and “—”, respectively. Moreover, in the assay with PKC-βII, the “Affinity for PKC isoform βII” value was “—”.

The record behind these values is patent publication US20110039770A1, “INHIBITORS OF PROTEIN KINASE C ISOFORMS AND USES THEREOF” (PHARMAGAP INC., priority 2005, published 2011).
